This passage reports other: Ratio (with:without activator) results from publication PMC3796484.

In the experiment the target is spliced X-box binding protein (Xbp1s), P17861-2. The experiment can be described thus: two-hybrid assay (Gal4 UAS-CAT reporter in transfected cells). The conditions noted are these: CAT activity normalized to β-galactosidase internal control; P=.008; parent: est. 3.4; read off a plot.
Chain of spliced X-box binding protein (Xbp1s), P17861-2 (P17861 other isoform, or with tags, fused parts or gaps): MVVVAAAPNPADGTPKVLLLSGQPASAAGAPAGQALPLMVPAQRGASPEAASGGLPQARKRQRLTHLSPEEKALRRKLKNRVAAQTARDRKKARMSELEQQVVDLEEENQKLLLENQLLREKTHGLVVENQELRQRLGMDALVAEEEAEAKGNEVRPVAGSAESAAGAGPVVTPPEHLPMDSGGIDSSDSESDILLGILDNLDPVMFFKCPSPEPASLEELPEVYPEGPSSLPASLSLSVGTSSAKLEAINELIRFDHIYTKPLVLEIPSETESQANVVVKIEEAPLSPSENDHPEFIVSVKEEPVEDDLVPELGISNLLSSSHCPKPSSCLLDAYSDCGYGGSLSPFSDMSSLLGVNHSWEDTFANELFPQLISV

On to “Zhangfei linked to the DNA-binding domain of yeast GAL4 (from UniProt Q9NS37) ZF(L/A)”, for which the other: Ratio (with:without activator) was 1.
